According to a protein production outcome set (Wang et al. 2014):

Assay: label from the status in PepcDB records
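Also: failed if final PepcDB status was selected cloned or expressed and not failed if soluble or beyond.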

With “SEILRKFKILGRSKSPIFAFTVTAGLALTAVTGSATAVSIFRDSPSNKIATAVEGVVRSSRAIYSITLTVADYKYTLRRLPADSDEYLQRLTEVHSRSAKRILKLCESNKGFYVKAGQFVATLKLVPKEYSLALSSLQDKAVPCNFQEIKQVLTSNLGQNLTEIYLSFDEEPIAAASIAQVHHAVLKNHQEVAVKVQYPGLKQNMMLDTMIMSFLSKSVAKIFPEYRFDWLVYEFVKSISQELDFLQEAKNSERIAKNFKHNKMITIPTVFSEFTTTQVLTMQFCKGFKVDDVESLKRTNVSPEKVAKVLVEVFAEMIFVHGFIHGDPHPGNILVSPEGQNGFSLVLLDHGNCKTLDEAFRRDFCRLWEALILLDSNKIQELGKQFGVGKYAKFFPVIFTGRTSESGLIRSITLKLGAPQRVRLLAYAKYAVYGLGYKPTSEPDFVEKSVISRSVMLMSYLRLRLILELMELFQGMKKLKHTIYGFYGQLVGGITNSVKRITCSV” the protein production was “failed”.
With “MQPILWILTLGISLNGVTSVTFLKQFNTSFLDFEIVGVPIIFALTIPLFGSFSSRLEFSNSTIYVVHLLSNRKIIYYFMGTDVIFYAIITFVNVLTVAGLSFILTSEGVNVIGLLAVLPLMLLGSLTSYSLGIIINSLFRNLSSPTSYLFSLIQVILILFSGVYYPLSYLPEYLRIIAFISPYSHLIALIRYILLGYNASDLNALWFYTLPYQVQVVLSISYVIVLGVILFILAGKRLVKGQGMVLL” the protein production was “failed”.
With “MTMQDILYYIHTYGLIVLFLIVVGEYCVPAMPTGIVMPAAGIIAGQAHKGIIKVMLISLIAGLVGSIILYLLGYFVGSTLLEKIKIKHPKIEDKLEKTEKILEKHSFLGIFICRLIPIIRTYVSLICGTVKVNFFKFIIFSIPGIFCWNFTGIVVGYFFGGKIRF” the protein production was “failed”.
In the case of “MSLDRLAPAIFVFLWSTGWVTAKYAVYYTGPLTFLCLRYLLAGLLLWAICRFSGISWPKQRADVLRAILSGVFLHGIYLGMIWWAIGQGVPAAIGGIIAGLQPLMTAVAARFMIGERISPLQRAGLLLGFAGIAIAVLPKVMATGALGMSVPLYAVAVNVLGMVSVTYGTLYQKKYVHGGNIMAVATLQYVGALLVTVPFALLLEDGHVDWSLGLAATLGWSVGAISIGAVALLLYLIRRGQVSRAASLIYLVPPLAAVEAAVLFGETLTPAMIAGTVLAVTGVYLANRKPAASVAVR”, the protein production is reported as “failed”.
In the case of “MKWLKHFQSLHTKLVIVYVLLIIIGMQIIGLYFTNSLEKELTQTFKNNISQYAKQIEINIEKVYDEDNAINAQKEVQNLLNEYANRQEIEEIRFIDKDQIIMATSKQSTRSLINQKANDNSIQKALSLGEINSHTVLKDYGNGKQRVWVYNLPVKTSNDGTIGDVYIEADINDVYNQLSNINQIFIVGTGISLLITVILGFFIARTITKPITDMRNQTVEMSKGNYTQRVKIYGNDEIGELALAFNNLSKRVQEAQANTESEKRRLDSVITHMSDGIIATDRRGRVRIVNDMALTMMGTMKEDIIGDHMLKVLKLEEDFSLDEIQENNDSFLLDINENEGIIARVNFSTIVQETGFVTGYIAVLHDVTEQQQVERERREFVANVSHELRTPLTSMNSYIEALESGAWKDGELAPQFLSVTREETERMIRLVNDLLQLSKMDNESEQITKEIVDFNMFINKIINRHEMSAKDTTFVREVPTETIFTEIDPDKMTQVFDNVITNAMKYSRGDKRVEFHVKQNALYNRMTIRVKDNGIGIPINKVDKIFDRFYRVDKARTRKMGGTGLGLAISKEIVEAHNGRIWANSVEGQGTSIFITLPCEVLEDGDWDAE”, the protein production is reported as “failed”.
For “MAEQHGDSPVPVELSVVGGFLIAVIVGMLFPADAMTRWMFHPAVVAGCCWAGQLWYVGRKLSVPPAAGNPWRYIFGMANTVTLLRGGLYAVVAGFLVVPATTDLAWVPAACYGVGVVLDKLDGTVARTVGEQTQLGTRLDMAFDTFGFVVAPLVAVFWGQLPVLYLSLSAARYAYVGGIRWRRYRDRPVFERPDSNLGKYLAGVQMVFITAALVPVVPTELVFRLTPVVLAPSLAVFLRDFLVASGRLPREWFDRQR”, the protein production was “failed”.
For “METQKTQAENPPKPATSSCRKKTKDDANFLEDVKDHIDDFINASMDDHKNCFNKTIKKMFGLSKAVADKQQSEAKGGVESYLPLQTTVSD”, the protein production was “failed”.
With “MKTFIWNSNYETGVAKVDDQHQCLVEIINEYSHLLANNTTTETDIELTLNKLIDYTKFHFKDEEQLMYSVGLDTRHITHHEKLHRDILDEISTLLSDQVTDKLSIARYILDLIIHWLVYHILGTDMNMAKQMKAIQGGLSARDAYDFEEKIKDKSTEPLLEALNALFIQISERNKDLMELNKTLEAKVISRTQQLSERNKELAILSLTDPLTNMANRRHAMQQLTLLWEESVNNNLPLSCLMIDVDYFKQINDTHGHDIGDVVLIELARVFQHAIRTDDIACRLGGDEFFIICPATELEGGLLIAELINEQVESLSIDISDSQLSLSTSIGVATKTAQMTSIEDLMKAADDGVYSAKSNGRGCTKSIQ” the protein production was “failed”.
For “MERIVMPANYVHTRTTPFWTKETAPASIWRRHLDAGTRQGVYPRLCVMQGTIRYYGYADETSPEPVETLTIEAGQFGVFPPEKWHRIEALSDDTLFNVDFYVDPKILIEGLEHHHHHH”, the protein production was “failed”.
For “MAGQSDRKAALLDQVARVGKALANGRRLQILDLLAQGERAVEAIATATGMNLTTASANLQALKSGGLVEARREGTRQYYRIAGEDVARLFALVQVVADEHLADVAVAAADVLGSPEDAITRAELLRRREAGEVTLVDVRPHEEYQAGHIPGAINIPIAELADRLAELAGDRDIVAYCRGAYCVMAPDAVRIARDAGREVKRLDDGMLEWRLAGLPVDEGAPVGHGD”, the protein production was “failed”.
For “MGHHHHHHSHMIEHDPVKPRQLPKTIGCSKNFPGKTALATREQVQWWLLQLAQELEERLTKDRNDNDRVATQLVVSIRVQGDKRLSSLRRCCALTRYDAHKMSHDAFTVIKNCNTSGIQTEWSPPLTMLFLCATKFSASAP”, the protein production was “not failed”.
For “QVYKAKFGTPNRGWVIIVHGLGEHSGRYSKLVSMLVNEGYAVYTFDWPGHGKSPGKRGHTSVEEAMEIIDFIIEEINDKPFLFGHSLGGLTVIRYAETRPEKIRGVIASSPALAKSPKTPSFMVALAKILGVLLPSLTLSNGIDPNLLSRNPDAVKRYIEDPLVHDRISAKLGRSIFKNMDLAHREAHKIKVPVLLLVGTGDVITPPEGARKLYGEIKVEDKEIVEFEGAYHEIFEDPEWGEEFHKKIVEWIKKH”, the protein production was “not failed”.
With “MKNIAFFDFDGTITSTDSYTPFIFQTIPASRMKKGKFLLAPYILGYRLKLIRGTVLRSKIFKLGFAGLDADEIQQKGLSFSQSYLPQIIRPQALERIQWHLAQGDHVVVVSASMDVYLKPWCTQYGLDLLCSEVDTINGKITGIYKNGDCSREVKKQRILDNYDLSLYAAIYAYGDTIEDQAMLSLATHGFYRWQPINPR” the protein production was “failed”.
For “SLRLHAGVWGLKVRYEGSFEVSKTPEEVFEFLTDPKRFSRAFPGFKSVEVEDGSFTIELRLSLGPLRGDARVRASFEDLEKPSKATVKGSGRGAGSTLDFTLRFAVEPSGGGSRVSWVFEGNVGGLAASMGGRVLDSLARRMINDVISGVKRELGEA”, the protein production was “not failed”.
With “MANKNMRNTTTKVEALIESCRSEGKWHRVIELTDELKTGSPHNECLANFLVGEARLESYLEENALASDSNFGRAKSGLAEARRFLHLALGESGQKAGIALDAYLLLAKLCFACGEYEQSLDNFVKAELNTLAEKELTLRSLKILAESYAIKGLCLEQQTTKPSSKFKKAEKDTEMISCFERASDLGLLYLQEYDLVSGSSGSSNNSTAGSTLNVNASTVQPSSSSFAISSTIPASGPSGLEMNRRMGAILETALQRAPIVLIKTEKLQEAVERYRIMLNAIETRATQSLRLTLARQLAEVLLRGVSGTIYSPPFTGKSGGGTLRGGSSKKLWKPRKYAARQQFNPRNQQEEVILLLLIAEALAVRDTVLSQSPEFRQARQHAMGNVTAVYDLLTLATVRWGLVQLLNESFEKALKFSFGEQHVWRQYGLSLMAAEKHSHALRVLQESMKLTPSDPLPCLLASRLCYESLETVKQGLDYAQQALKREVKGLRPSRSQLFVGIGHQQLAIQSNLKSERDACHKLALDALERAVQFDGNDHLAEYYLSLQYALLGQLAEALVHIRFALALRMEHAPCLHLFALLLTSSRRPREALGVVEDALHEFPDNLQLLHVKAHLQLHLEDAETALGTVQHMLAVWRDVYEAQLAGEEEKHSDTKSGVHLAHSSQMSDKDSNSVYAASLAAVSRVEQALSEAASSLSSFTQRPGPRRPWMLQIEIWLLLADVYLRIDQPNEALNCIHEASQIYPLSHQIMFMRGQVHVYLEQWFDAKQCFLNAVAANPNHTEALRALGEAHLVLGEPRLAEKMLKDAAKLDPSCPKIWFALGKVMEILGDFHASADCFATSLQLEPSCPVLPFTSIPLVFE” the protein production was “failed”.
With “KLGMKPVSDVSRVTIKRAKNVLFVISKPDVYKSPNAETYVIFGEAKVDDLSSQLQTQAAQRFKMPDVTSMLPNAGSEATMAPLAEEEDEDDVDDTGVEARDIDLVMTQAGVSKAKAVSALKANDGDIVSAIMELTT” the protein production was “failed”.
With “VYGSEVESKIIEFTIVGADEIIAEKLGISVGDFVYKIIRLRIIHSIPTIMEHTWMPIAVIPGVEASVLEESIYSYIQNKLGLKVGTSVVRVKGIRPDDKEKQFMNLTNQDFLMRVEQVAYLTDGRTFEYSYADHLPETFEFETVITAKSYKEA” the protein production was “not failed”.
For “MVRLTPFYKKLSILFVEDEREVQEAALNVLERYIDHILVASDGEEALAIFKEKRPDIVITDIKMPVMDGLALTKEIKELGDTPVIVISAFDNEEFVSEAARLGVETYLLKPIDIQLLLASINRCIELLIRREEARQNRSLLREYKRIVDETAMICKIDLDKTITYANEAFCQISGYSKEELTGKIYRHMVSPRQDLSRLDGGLWVNVLRGKSWKGMIELLNKKGEPYFIQASMFPLFDADGKITELIALQFDITEHIKTKQILEKQNQKLEHIAHTDTLTGVWNRYKFNKILRQEIKCAKSSNHPFSLMLLDVDRFKTINDTHGHQFGDRVLKAITSTLKRQLKHKEAMIARWGGEEFIVLAQGYRLAQALELAERLRAAIEGMEFENIPITSSFGVTEFSPEDELDTLVRRADLALYTAKESGRNRIISY”, the protein production was “failed”.
With “MPNIGIIGAGIGGLQLGLQLRQHDIPVTIYTDKTANQIAGGRLLNSVAHHGPTLERERLLGVHFWPVEEYGYSCHHHYLGGDQPMSFRGDFTNWSSAIDYRLYLPKLSEAFQERGGNLEVRMLQADDIEPIAARHDLIVVAAGRGAFASMFPRRPDLSPYDTPQRALSVGIYRGIAESDPRGVTISTSPGHGDLLEIPMYTEDGFLTALLFENIPGGDLEILAKMSYDDDPQAFNRTVLDKLARHHPQTFERVDHTQFGLHRSIDLLQGALVPTVREDYAKLPGGKFALAIGDVHTVVDPLLGQGANSASHSAWVTGEAIVEDLGFDEMFCTRVARRRADVVLGAAQWTNLMLAPPAEHVLRLFEAMNANKAVADEFTHNFDHPDRQWQILATAERTNAFLARHGIESAAALAV” the protein production was “failed”.
In the case of “MSSALLRAAYAYDRLRAHPPEVAGQIATAMASAVHPKGEEPVFLELGVGTGRIALPLIARGYRYIALDADAAMLEVFRQKIAGVDRKVQVVQADARAIPLPDESVHGVIVVHLWHLVPDWPKVLAEAIRVLKPGGALLEGWDQAEASPEWTLQERWRAFAAEEGFPVERGLHAKRLKEVEEALRRLGLKPRTREVARWREERTPREALEALSERLYSFTQGLPEPVHARVMERLWAWAEAELGDLDRPFPVEKRFLLRVSRLG”, the protein production is reported as “not failed”.
For “MANRSHHNAGHRAMNALRKSGQKHSSESQLGSSEIGTTRHVYDVCDCLDTLAKLPDDSVQLIICDPPYNIMLADWDDHMDYIGWAKRWLAEAERVLSPTGSIAIFGGLQYQGEAGSGDLISIISHMRQNSKMLLANLIIWNYPNGMSAQRFFANRHEEIAWFAKTKKYFFDLDAVREPYDEETKAAYMKDKRLNPESVEKGRNPTNVWRMSRLNGNSLERVGHPTQKPAAVIERLVRALSHPGSTVLDFFAGSGVTARVAIQEGRNSICTDAAPVFKEYYQKQLTFLQDDGLIDKARSYEIVEGAANFGAALQRGDVAS”, the protein production was “not failed”.
For “MAADKLADEVACMANTPGGGALIVGIEDKTGRIIGTELDIDWLRQGIFTRIDVAPDVVAKRVLGQRVLAIYVAAAAEPIEDTSDRLRWRVGDSCRPVDLEHHHHHH”, the protein production was “failed”.
